In data set [1] the target is T1, Par(1-170) (Staphylococcus aureus plasmid pSK1, UniProt Q9L8I7 1-170).
T1 sequence: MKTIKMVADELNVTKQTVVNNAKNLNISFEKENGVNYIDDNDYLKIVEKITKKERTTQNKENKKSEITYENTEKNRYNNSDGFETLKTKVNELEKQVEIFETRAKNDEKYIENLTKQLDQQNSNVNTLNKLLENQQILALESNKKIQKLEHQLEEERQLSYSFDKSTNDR
The data set is described as follows: fluorescence polarization.

Data set [2] concerns the molecule itself. The data set is described as follows: SEC.

The term Kd denotes a measure of binding affinity in units of concentration. In general, stoichiometry N refers to the number of molecules, sites or subunits per partner or assembly.

B1: palindromic 18-mer (crystallization site), FP (dsDNA)
DNA 1: ATGTTAGGTACCTAACTA
DNA 2: TAGTTAGGTACCTAACAT
In data set [1], B1 registered a Kd of 43.4 ± 1.5 nM.

B2: centromere repeat 2/5/7 (dsDNA)
DNA 1: ATGTTAGGTAGTAAACTA
DNA 2: TAGTTTACTACCTAACAT
As to B2, the affinity in data set [1], expressed as Kd, was 66.5 ± 4.9 nM.

B3: pSK1 Par(78–170) (domain or fragment)
chain: NNSDGFETLKTKVNELEKQVEIFETRAKNDEKYIENLTKQLDQQNSNVNTLNKLLENQQILALESNKKIQKLEHQLEEERQLSYSFDKSTNDR
In the case of B3, the “stoichiometry N” value in data set [2] was found to be 4.

B4: centromere repeat 3 (dsDNA)
DNA 1: ATGTTAGGTGGTAAACTA
DNA 2: TAGTTTACCACCTAACAT
In data set [1], B4 gave a Kd of 62.7 ± 1.3 nM.

B5: half site mutant 18-mer (dsDNA)
DNA 1: ATGTTAGGTACCCGACTA
DNA 2: TAGTCGGGTACCTAACAT
Molecule B5 registered a Kd in data set [1] of 195 ± 10.8 nM.

B6: centromere repeat 1 (dsDNA)
DNA 1: ATGTTAGGTGCCTAACTA
DNA 2: TAGTTAGGCACCTAACAT
For B6, in data set [1], the affinity, expressed as Kd, was 67.5 ± 3.2 nM.

B7: pSK1 Par(1–170) (domain or fragment)
chain: T1 sequence
Consider B7, for which the “stoichiometry N” value in data set [2] was determined as 4.

B8: centromere repeat 6 (dsDNA)
DNA 1: ATGTTAGGTACTTAGCTA
DNA 2: TAGCTAAGTACCTAACAT
Turning to B8, in data set [1], the Kd came out at 90.2 ± 5.6 nM.

B9: centromere repeat 4 (dsDNA)
DNA 1: ATGTTAGGCGGTAAACTA
DNA 2: TAGTTTACCGCCTAACAT
The molecule B9 gave a Kd in data set [1] of 140 ± 10 nM.

(Values after PMC9595883 (Journal of molecular biology, 2022).)
